# Laboratory results reported in the nanobody polyreactivity screen of Harvey et al. (2022).
# Assay: yeast display, Sf9 membrane polyspecificity reagent, FACS + sequencing; frameworks hold sequencing errors
# Method in brief: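 A synthetic nanobody library was expressed on Saccharomyces cerevisiae BJ5465 by galactose induction for 36–48 hours. The library was stained for 1 hour at 4 °C with 10% biotinylated, detergent-solubilized Sf9 membrane reagent and enriched with streptavidin microbeads before FACS. Low and high (top ~1%) gates were set on anti-HA fluorescence for expression and streptavidin fluorescence for reagent binding, and each polyreactivity label reflects the gate of origin.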
row,Sequence,polyreactivity (PSR sort gate)
1,QVQLVESGGGLVQAGGSLRLSCAASGRIFVYYAMGWYRQAPGKERELVATISSGGSTYYADSVKGRFTISRDNAKNTVYLQMNSLKPEDTAVYYCAADNVIRYLAYYYKGDYWGQGTQVTVSS,low polyreactivity
2,QVQLQESGGSLVQAGGSLRLSCAASGNILVLPHGLVSPGAERELVATITGGSITYYADSVKGRFTISRDNAKNTVYLQMNSLKPGDTAVYYCAVINIYHRPHPYWGQGTLVTVSS,high polyreactivity
3,QVQLVESGGGLVQAGGSLRLSCAASGRIFSYYAMGWYRQAPGKDRELVAAISRSGGRTYYADSVKGRFTISRDNAKNTVYLQMNSLNPEDTAVYYCAATFSRGYDYWGQGTQVTVSS,high polyreactivity
4,QVQLVESGGGLVQAGGSLRLSCAASGITFRYYAMGLYRQAPGKERELVAAITRSASSTFYADSVKGRFTISRDNAKNTVYLQMNSLKPEVTAVYYCAAESVRAVFPDRYKYWGQGTQVTVSS,high polyreactivity
5,QVQLVESGGGLVQAGGSLRLSCAASGSIFRSNAMGWYRQAPGKERELVAAITSGTRKYYADSVKGRFTISRDNAKNTVYLQMNSLKPEDTAVYYCATKGSKYDRGYWGQGTQVTVSS,high polyreactivity
6,QVQLVESGGGSVQAGGSLRLSCAASGYIFGVYAMGWYRQAPGKERELVAAISSGGSTNYADSVKGRFTISRDNAKNTVYLQMNSLKPEDTAVYYCNADYIFYYEYDYWGQGTQVTVSS,low polyreactivity
7,QVQLVESGLGLVQAGGSLRLSCAASGFTFTGYAMGWYRQAPGKERELVAAITRGGGSTYYADSVKGRFTISRDNAKNTVYLQMNSLKPEDTAVYYCAAQRSRLIRISSPYYGHEYWVQGTQVTVSS,low polyreactivity
8,QVQLVESGGGLVQAGGSLRLSCAASGFTFSWYAMGWYRQAPGKERELVAAISLSGDRTYYADSVKGRFTISRDNANNTVYLQMNSLKPEDTAVYYCVFAFEYWGQGTQVTVSS,low polyreactivity
9,QVQLVDSGGGLVQAGGSLRLSCAASGSIFGQYTMGWYRQAPGKERELVAAINSSGDSTFYADSVKGRFTISRDNAKNTVYLQMNSLKPEDTAVYFCAADPYRYYFRAYGWHREGYYWGQGTQVTVSS,low polyreactivity
10,QVQLVESGGGLVQAGGSLRLSCAASGRIFQYNAMGWYRQAPGKERELVAAISNSDSTNYADSVKGRFTISRDNAKNTDYLQLNRVKPEDTAVYYCARRYYFYRWVIPDYDYWGQGTQVTVSS,low polyreactivity
11,QVQLVESGGGLVQAGGSLRLSCAASGRTFLWNAMGWYRQAPGKERELVAAISISGGNTNYADSVKGRFTISRDNAKNTVYLQMNSLKPEDTAVYYCNADPRAEPGDWSYEMDYWGQGTQVTVSS,low polyreactivity
12,QVQLVESGGGLVQAGGSLRLSCPASGSTFARNAMGWSRQAPGKEREFVASIRWGGGSTYYADSVKARFTISRDNAKNTVYLQMNSLKAEDTAVYYCATRGWSKHLFGGYTQYYYWGQGTQVTVSS,high polyreactivity
13,QVQLVESGGGFVQAGGSLRLSCAASGINVSHYTMGWYRQAPGKERELVAGISRSGGSTYYADSVKGRFTISRDNAKNTVYLQMNSLKPDDTAVYYCAADGYGFVSPRGYNYWGQGTQVTVSS,high polyreactivity
14,QVQLVESGGGLVQAGGSLRVSCAASGRIFRWYAMGWYRQAPGKERELVAAITSRGTSTYYADSVKGRFTISRDNAKNTDYLQMNSLKPEDTAVYYCNAVPSRGYDYWGQGTQVTVSS,high polyreactivity
15,QVQLVESGGGLVQAGGSLRLSCAASGSIFGAYGMGWYRQAPGKEREFVAAITGRGSTTYYADSVKGRFTISRDNAKNTVYLQMTSLKPEDTAVYYCNTRYRGLYHYPMGSWGQGTQVTVSS,high polyreactivity
16,QVQLVESGGGLVQAGGSLRLTCAASGSTFSYYAMGWYRQPPRKERELVAVITWSGASTYYADSVKGRFTISRDNAKNTVYLQMNSLKPEDTAVYYCAADKYLSYDYWGQGTQVSVSS,low polyreactivity
17,QVQLVESGGGLVQAGGSLRLSCAASGSTFAYNDMGWYRQAPGKERELVADIRSGGNTNYADSVKGRFTISRDNAKNTVYLQMNSLKPEDTAVYYCATDGYRIDVYHPDYRYDYWGQCTQVTVSS,low polyreactivity
18,QVQLVESGGGLVQAGGSLRLSCAASGRTLWYYTMGWYRQAPGKERELVAVISTSGGRTYYADSVKGRFTISRDNAKNTVYLQMNSLKPEDTAVYYCAADGFQYTLGNYYWGQGTQVTVSS,high polyreactivity
19,QVQLVESGGGLVQAGGSLRLSCAASGYSFRIYAMGWYRQAPGKERELVATITNGGSTHYADSEKGRFTISRDNAKNTVYLQMNSLKPEDTAVYYCAAYLPGWELRDYGYWGQGTQVTVSS,high polyreactivity
20,QVQLVESGGGIVQAGGSLRLSCAASGSIFGGNALGWDRQAPGKERELVAAITWSGTSTYYADSVKGRFTISRDNAKNTVYLQMNSLKPEDTAVYYCNADYKSTDFRYSGSRNYWGQGTQVTVSS,low polyreactivity
21,QVQLEESGGGLVQAGGSLRLSCAASGSTFSSNVMGWYRQAPGKERELVAAITGSGSRTYYADSVKGRFTISRDNAKNTVYLQMNSLKPEDTAVYYCNTKGRSRETYGYDYWGQGTQVTVSS,high polyreactivity
22,QVQLVESGGGLVQAGGSLRLSCAASGITFYWNDMGWYRQATGKERELVAAIRRTAGSTYYADSVKGRFTISRDNAKNTVYLQMNSLKPEDTAVYYCAASRHFARHRGYYFRYDYWGQGTQVTVSS,high polyreactivity

row,Sequence,polyreactivity (PSR sort gate)
1,QVQLVESGGGLVQAGGSLRLSCAASGIILHYYAMGSYRQAPGKERELVAAISARGGRTYYADSVKGRFTISRDNAKNTVYLQMNSLKPEDTAVYYCARYLRRSSPSPGYGYWGQGTQVTVSS,high polyreactivity
2,QVQLVESGGGLVQAGGSLRLSCAASGRIFRYYAMGWYRQAPGKERELVAAISGGGGTYYADSVKGRFTISRDNATNTVYLQMNSLKPEDTAVYYCNAETYDYWFGYDYWGQGTQVTVSS,high polyreactivity
3,QVQLVESGGGLVQAGGSLRLICAASGRTFRFYAKGWYRQAPGKERELVAAITSGGSTTYAYSVKGRFTISRDNAKNTVYLQMNSLKPEDTAVYYCNADRARAYDYWGQGTQVTVSS,high polyreactivity
4,HDQLVETGGGLVQAGGSLRLSCAASGRTYSKYAMGRYRQPPGKERELVAAITSGGGTYYADSVKGRFTISRDNAKNTVYVQMNSLSPEDSAVYYCAVSVTTVSTHDYWGQGTQVTVSS,low polyreactivity
5,QVQLVDSGGGLVQAGGSLRLSCAASGSIFRYNDMGWYRQAPGKERELVATITSGTNTYYADSVKGRFTISRDNEKNTVYLQMNSLKPEDTAVYYCAAGYPSWYYGYPYDSWGQGTQVTVSS,low polyreactivity
6,QGQLVESGRGLVQAGGSLRLSCAASGRIFYSYAMGWYRQAPGKERELVAAISSGGSTKYADSVKGRFTISRDNAKNTVYLQMNSLKPEDTAVYYCAARTYQKGGRYYYWGQGTQVTVSS,high polyreactivity
7,QVQLVESGGGLVQAGGSLRLSCAASGFIFYPYAMGWYRQAPGKERELVAAITGSGGSTYYADSVKGRFTISRDNAKNTVYLQMNSLKPEDTAVYYCAAYYGPRKMDYWGQGTQVTVSS,high polyreactivity
8,QVQLVESGGGLVQAGGSLRLSCAASGRTFRPYAMGWYRQAPGKERELVAAITSCGSTYYADSVKGRFTISRDNAKNTVYLQMNSLKPEDTAVYYCNAKYYYQPPYDYWGQGTQVTVSS,low polyreactivity
9,QVQLVESGGGLVQAGGSLRLSCAASGYTFYINTMGWYRQAPGKEREFVAAITWSGGSTYYADSVKGRFTISRDNAKNTVYLQMNSLIPEDTAVYYCAADLYVGDMDYWGQGTQVTVSS,low polyreactivity
10,QVQLVESGGGLVQAGVSLRLSCAASGINFTRYAMGWYRQAPGKERELVAAITRNGVSTYYADSVKGRFTISRDIAKNSVYLQMKSLKPEDTAVYYCNTFVLRRYAYCYWGQGTQVTVSS,high polyreactivity
11,QVQLVESGGGLVQAGGSLRLSCAASGFIFRWNAMGWYRQAPGKVRELVAAISNSDGSTYYADSVKGRFTISRDNAKNTVYVQMNSLKPEDTAVYYCYKLYRGGWYDYWGQGTQVTVSS,low polyreactivity
12,QVQLVESGGGLVQAGGSLRLSCAASGRIFYINAMGWYRQAPGKEWELVAGITRSGGSTYYADSVKGRFTISRDNAKNTVYLQMNSLKPEDTAVYYCNAGRYARQHSRYDYWGQGTQVTVSS,high polyreactivity
13,QVQLVESGGGLVQAGYSLRLSFAASGITFRYYAMGWYRQATGKERELVAGITWSGPSTYYADSVKGRFTISRDNAKNTVYLQMNILKPEYTAVFYCAVDYGLYFTFDYWGQGTQVTVSS,low polyreactivity
14,QVQLVESGGGLVQAGGILRLSCAASGSTFAYNAMGWYRQEPGKERELFAAISWSGGTTYYADSVKGRFTISRDNAKTTVYLQMNSLKPEDTAVYYCNAVYYPSYQQVRAHDYWGQGTQVTVSS,high polyreactivity
15,QVQLVESGGCLVQAGGSLRLSCAASGSTFTYNAMGGYRQAPGKERELVAGISWRGGRTYYADSVKGRFTISRDTAKNTVYLQMNSLKPEDTAVYYCNARLWGTHYEYARMYYWGQGTQVTVSS,low polyreactivity
16,QDQLVESGGGLVQAGGSLRLSCAASGLIFIDYAMGWYRQAPGKERELVAAITRGGARTYYADSVKGRFTISRDNAKNTVYLQMNSLNPEDTAVYYCAADRPGSRYIDVDYWGQGTQVTVSS,high polyreactivity
17,QDQLVESGGCLVQAGGSLRLRCAASGRTFEAYAKGGYRQAPGKERELVASISSGGSTYYADSVNGRFTISRDNAKNTVYLQMNSLKPEDTAVYYCAAKRATRYYFAYYRARSERMNYWGQGTQVTVSS,high polyreactivity
18,QVQLVESGGGLVQAGGSLRLSCAASGRIFVTNDMGWYRQAPGKERELVAAISLSSGSTYYADSVKGRFTISRDNAKNTVYLQMNSLKPEDTAVYYCAADIFPFGYFLFRHGYWGQGTQVTVSS,low polyreactivity
19,QVQLVESGGGLVQAGGSLRLSSASSGSIIFLYTMGWYRQAPGKERELVAAIDSVGSTNYADSVKGRFTISRDNAKNTVYLHMNSLKPEDTAVYYCNAYFWVGLYEYDYWGQGTQVTVSS,low polyreactivity
20,QVQLVESGGGLVQAGGSLRLSCAASGLIFRPYTMGWYRQAPGKERELVAAINFSGGNTYYADSVKGRFTISRDNAKNTVYLQMNSLKPEDTAVYYCATKSFYGYYYWPYGYWGQGTQVTVSS,low polyreactivity
21,QVQLVESGGGLVQAGGSLRLSCAASGRIFGGNAMGWYRQAPGKERELVAAISKRGGSTYYADSVKGRFTISRDNAKNTVYLQMNSLKPEDTAVYYCAAGFTAWTGVWYGYWGQGTQVTVSS,high polyreactivity
